Data as given in patent US20240200091A1, “USE OF PROTOPORPHYRINOGEN OXIDASE” (BEIJING DABEINONG BIOTECHNOLOGY CO., LTD., priority 2021, published 2024).

Assays:
Format in all cases: in vivo
[1] = test system: Arabidopsis thaliana T1 plants; experiment: saflufenacil tolerance of transgenic Arabidopsis thaliana T1 plants (spray, grade of pesticide damage); conditions: for The grade of pesticide damage/plant: grade 0 / The grade of pesticide damage/plant: grade 1 / The grade of pesticide damage/plant: grade 2 / The grade of pesticide damage/plant: grade 3: 7 DAT, number of plants of 24 per genotype, grades
In short: (§1)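 Glufosinate-selected T1 lines expressing PPO variants, with control-vector and wild-type plants (24 per genotype), were sprayed 18 days after sowing with saflufenacil 25 or 100, sulfentrazone 450 or 900, flumioxazin 60 or 240, or oxyfluorfen 180 or 720 g ai/ha, or water. Injured/total leaf area was graded 0–3 at 7 DAT.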

[2] = test system: transgenic soybean plants; experiment: saflufenacil tolerance of transgenic soybean plants (spray, grade of pesticide damage); conditions: for The grade of pesticide damage/plant: grade 0 / The grade of pesticide damage/plant: grade 1 / The grade of pesticide damage/plant: grade 2 / The grade of pesticide damage/plant: grade 3: 7 DAT, number of plants of 16 per genotype, grades
[3] = test system: Arabidopsis thaliana T1 plants; experiment: oxyfluorfen tolerance of transgenic Arabidopsis thaliana T1 plants (spray, grade of pesticide damage); conditions: for The grade of pesticide damage/plant: grade 0 / The grade of pesticide damage/plant: grade 1 / The grade of pesticide damage/plant: grade 2 / The grade of pesticide damage/plant: grade 3: 7 DAT, number of plants of 24 per genotype, grades
In short: as §1

[4] = test system: Arabidopsis thaliana T1 plants; experiment: flumioxazin tolerance of transgenic Arabidopsis thaliana T1 plants (spray, grade of pesticide damage); conditions: for The grade of pesticide damage/plant: grade 0 / The grade of pesticide damage/plant: grade 1 / The grade of pesticide damage/plant: grade 2 / The grade of pesticide damage/plant: grade 3: 7 DAT, number of plants of 24 per genotype, grades
In short: as §1

[5] = test system: transgenic soybean plants; experiment: flumioxazin tolerance of transgenic soybean plants (spray, grade of pesticide damage); conditions: for The grade of pesticide damage/plant: grade 0 / The grade of pesticide damage/plant: grade 1 / The grade of pesticide damage/plant: grade 2 / The grade of pesticide damage/plant: grade 3: 7 DAT, number of plants of 16 per genotype, grades
[6] = test system: transgenic soybean plants; experiment: oxyfluorfen tolerance of transgenic soybean plants (spray, grade of pesticide damage); conditions: for The grade of pesticide damage/plant: grade 0 / The grade of pesticide damage/plant: grade 1 / The grade of pesticide damage/plant: grade 2 / The grade of pesticide damage/plant: grade 3: 7 DAT, number of plants of 16 per genotype, grades
[7] = test system: Arabidopsis thaliana T1 plants; experiment: sulfentrazone tolerance of transgenic Arabidopsis thaliana T1 plants (spray, grade of pesticide damage); conditions: for The grade of pesticide: grade 0 / The grade of pesticide: grade 1 / The grade of pesticide: grade 2 / The grade of pesticide: grade 3: 7 DAT, number of plants of 24 per genotype, grades
In short: as §1

B1: PPO-APA: nucleotide sequence encoding Arsenophonus protoporphyrinogen oxidase PPO-AP (SEQ ID NO:65), Arabidopsis thaliana/soybean common codon usage bias (nucleic acid)
DNA: ATGTCTTACCTGCTGTTATATTCAGGGAAAAATGGACAAACCAAGAAGATCATTCTGAAAATAACAGAGTATCTTCGAAAAGAAGGAAAGCAATGTGATGTTAGAGATTTGAACATGGATAAGAACTTCAACCTTTCTGTATATCAGAAGGTGCTCGTTGGTGCCTCGATAAGATATGGTCATTTCAATCCCGCAGTCCTCAATTTTGCTCAGAATCACCAAAAGGAGTTAAACACTATTCAATCAGCTTTCTTTGGCGTGAATTTGATGGCTCGTAAACAAGGAAAAGATACTCCTGAGACAAATGTGTATGTGAGGAAGTTTCTTGCCAAAATTCCATGGCAACCAACAATCACCAATGTTTTCAGTGGAGCGTTGAGGTATCCTCAGTACAAATGGCTTGACCGGATAATGATTCAGTTTATCATGAAGATTACTGGTGGTGAAACAAACAAAAACAAGGAAGTTGAATATACTGATTGGGAAAAGGTAGAGTACTTTGCAAGAGAGTTTAATGCTTTGAAATGA
modifications: The nucleotide sequence of PPO-APA
0: The grade of pesticide: grade 0 ([7]; sulfentrazone 450 g ai/ha (1×)) | The grade of pesticide: grade 1 ([7]; sulfentrazone 450 g ai/ha (1×)) | The grade of pesticide: grade 2 ([7]; sulfentrazone 450 g ai/ha (1×)) | The grade of pesticide: grade 0 ([7]; sulfentrazone 900 g ai/ha (2×)) | The grade of pesticide: grade 1 ([7]; sulfentrazone 900 g ai/ha (2×)) | The grade of pesticide: grade 2 ([7]; sulfentrazone 900 g ai/ha (2×))
8 plant: The grade of pesticide damage/plant: grade 2 ([2]; saflufenacil 50 g ai/ha (2×)) | The grade of pesticide damage/plant: grade 3 ([2]; saflufenacil 50 g ai/ha (2×)) | The grade of pesticide damage/plant: grade 2 ([6]; oxyfluorfen 360 g ai/ha (2×)) | The grade of pesticide damage/plant: grade 3 ([6]; oxyfluorfen 360 g ai/ha (2×))
0 plant: The grade of pesticide damage/plant: grade 0 ([1]; saflufenacil 25 g ai/ha (1×)) | The grade of pesticide damage/plant: grade 1 ([1]; saflufenacil 25 g ai/ha (1×)) | The grade of pesticide damage/plant: grade 2 ([1]; saflufenacil 25 g ai/ha (1×)) | The grade of pesticide damage/plant: grade 0 ([1]; saflufenacil 100 g ai/ha (4×)) | The grade of pesticide damage/plant: grade 1 ([1]; saflufenacil 100 g ai/ha (4×)) | The grade of pesticide damage/plant: grade 2 ([1]; saflufenacil 100 g ai/ha (4×)) | The grade of pesticide damage/plant: grade 0 ([2]; saflufenacil 50 g ai/ha (2×)) | The grade of pesticide damage/plant: grade 1 ([2]; saflufenacil 50 g ai/ha (2×)) | The grade of pesticide damage/plant: grade 0 ([2]; saflufenacil 100 g ai/ha (4×)) | The grade of pesticide damage/plant: grade 1 ([2]; saflufenacil 100 g ai/ha (4×)) | The grade of pesticide damage/plant: grade 2 ([2]; saflufenacil 100 g ai/ha (4×)) | The grade of pesticide damage/plant: grade 0 ([3]; oxyfluorfen 180 g ai/ha (1×)) | The grade of pesticide damage/plant: grade 1 ([3]; oxyfluorfen 180 g ai/ha (1×)) | The grade of pesticide damage/plant: grade 2 ([3]; oxyfluorfen 180 g ai/ha (1×)) | The grade of pesticide damage/plant: grade 0 ([3]; oxyfluorfen 720 g ai/ha (4×)) | The grade of pesticide damage/plant: grade 1 ([3]; oxyfluorfen 720 g ai/ha (4×)) | The grade of pesticide damage/plant: grade 2 ([3]; oxyfluorfen 720 g ai/ha (4×)) | The grade of pesticide damage/plant: grade 0 ([4]; flumioxazin 60 g ai/ha (1×)) | The grade of pesticide damage/plant: grade 1 ([4]; flumioxazin 60 g ai/ha (1×)) | The grade of pesticide damage/plant: grade 2 ([4]; flumioxazin 60 g ai/ha (1×)) | The grade of pesticide damage/plant: grade 0 ([4]; flumioxazin 240 g ai/ha (4×)) | The grade of pesticide damage/plant: grade 1 ([4]; flumioxazin 240 g ai/ha (4×)) | The grade of pesticide damage/plant: grade 2 ([4]; flumioxazin 240 g ai/ha (4×)) | The grade of pesticide damage/plant: grade 0 ([5]; flumioxazin 120 g ai/ha (2×)) | The grade of pesticide damage/plant: grade 1 ([5]; flumioxazin 120 g ai/ha (2×)) | The grade of pesticide damage/plant: grade 2 ([5]; flumioxazin 120 g ai/ha (2×)) | The grade of pesticide damage/plant: grade 0 ([5]; flumioxazin 240 g ai/ha (4×)) | The grade of pesticide damage/plant: grade 1 ([5]; flumioxazin 240 g ai/ha (4×)) | The grade of pesticide damage/plant: grade 2 ([5]; flumioxazin 240 g ai/ha (4×)) | The grade of pesticide damage/plant: grade 0 ([6]; oxyfluorfen 360 g ai/ha (2×)) | The grade of pesticide damage/plant: grade 1 ([6]; oxyfluorfen 360 g ai/ha (2×)) | The grade of pesticide damage/plant: grade 0 ([6]; oxyfluorfen 720 g ai/ha (4×)) | The grade of pesticide damage/plant: grade 1 ([6]; oxyfluorfen 720 g ai/ha (4×)) | The grade of pesticide damage/plant: grade 2 ([6]; oxyfluorfen 720 g ai/ha (4×))
no tolerance: tolerance to saflufenacil ([1]; saflufenacil at four-fold field concentration (100 g ai/ha)) | tolerance to saflufenacil ([1]; saflufenacil at one-fold field concentration (25 g ai/ha)) | tolerance to oxyfluorfen ([6]; soybean, oxyfluorfen at four-fold field concentration (720 g ai/ha)) | tolerance to sulfentrazone ([7]; sulfentrazone at different concentrations (450 and 900 g ai/ha))
16 plant: The grade of pesticide damage/plant: grade 3 ([2]; saflufenacil 100 g ai/ha (4×)) | The grade of pesticide damage/plant: grade 3 ([5]; flumioxazin 120 g ai/ha (2×)) | The grade of pesticide damage/plant: grade 3 ([5]; flumioxazin 240 g ai/ha (4×)) | The grade of pesticide damage/plant: grade 3 ([6]; oxyfluorfen 720 g ai/ha (4×))
no flumioxazin tolerance: tolerance to flumioxazin ([5]; soybean, flumioxazin at different concentrations (120 and 240 g ai/ha))
24: The grade of pesticide: grade 3 ([7]; sulfentrazone 450 g ai/ha (1×)) | The grade of pesticide: grade 3 ([7]; sulfentrazone 900 g ai/ha (2×))
basically no tolerance: tolerance to saflufenacil ([2]; soybean, saflufenacil, compared with the control vector and CK) | tolerance to oxyfluorfen ([3]; oxyfluorfen at different concentrations (180 and 720 g ai/ha), compared with the control vector and CK) | tolerance to flumioxazin ([4]; flumioxazin at different concentrations (60 and 240 g ai/ha))
24 plant: The grade of pesticide damage/plant: grade 3 ([1]; saflufenacil 25 g ai/ha (1×)) | The grade of pesticide damage/plant: grade 3 ([1]; saflufenacil 100 g ai/ha (4×)) | The grade of pesticide damage/plant: grade 3 ([3]; oxyfluorfen 180 g ai/ha (1×)) | The grade of pesticide damage/plant: grade 3 ([3]; oxyfluorfen 720 g ai/ha (4×)) | The grade of pesticide damage/plant: grade 3 ([4]; flumioxazin 60 g ai/ha (1×)) | The grade of pesticide damage/plant: grade 3 ([4]; flumioxazin 240 g ai/ha (4×))
